Data on 4 proteins can be found in patent US20030087827.

Like-named read-outs stand apart in the source and are kept apart here.

Data set [1] concerns pERTKR-MCA (pyr-Glu-Arg-Thr-Lys-Arg-methylcoumarinamide). Kind of data set: enzyme assay, hydrolysis of fluorogenic substrate, least squares fit (EnzFitter).
Data set [2] deals with pERTKR-MCA (pyr-Glu-Arg-Thr-Lys-Arg-methylcoumarinamide). Described as above. The source holds these as a separate data set.
For another data set, the target named is T1, Hexa-D-arginine.
T1 chain: RRRRRR

The target of data set [3] is T2, Nona-L-arginine.
T2 chain: RRRRRRRRR

Another data set has as its target T3, Hexa-L-arginine.
T3 chain: RRRRRR

For data set [4], the system named is T4, Nona-L-arginine.
T4 sequence: RRRRRRRRR
The source holds these as a separate data set.

B1: proprotein convertase PC1 (enzyme, UniProt P29120 111-753, looked up, species assumed)
Neuroendocrine convertase 1: SALRDSALNLFNDPMWNQQWYLQDTRMTAALPKLDLHVIPVWQKGITGKGVVITVLDDGLEWNHTDIYANYDPEASYDFNDNDHDPFPRYDPTNENKHGTRCAGEIAMQANNHKCGVGVAYNSKVGGIRMLDGIVTDAIEASSIGFNPGHVDIYSASWGPNDDGKTVEGPGRLAQKAFEYGVKQGRQGKGSIFVWASGNGGRQGDNCDCDGYTDSIYTISISSASQQGLSPWYAEKCSSTLATSYSSGDYTDQRITSADLHNDCTETHTGTSASAPLAAGIFALALEANPNLTWRDMQHLVVWTSEYDPLANNPGWKKNGAGLMVNSRFGFGLLNAKALVDLADPRTWRSVPEKKECVVKDNDFEPRALKANGEVIIEIPTRACEGQENAIKSLEHVQFEATIEYSRRGDLHVTLTSAAGTSTVLLAERERDTSPNGFKNWDFMSVHTWGENPIGTWTLRITDMSGRIQNEGRIVNWKLILHGTSSQPEHMKQPRVYTSYNTVQNDRRGVEKMVDPGEEQPTQENPKENTLVSKSPSSSSVGGRRDELEEGAPSQAMLRLLQSAFSKNSPPKQSPKKSPSAKLNIPYENFYEALEKLNKPSQLKDSEDSLYNDYVDVFYNTKPYKHRDDRLLQALVDILNEEN
Take B1: the Km entry in data set [1] was “The Kms of PC1, PC2, furin, and PACE4 were determined as 11, 42, 8, and 15 µM, respectively”.

B2: recombinant truncated mouse furin (protein)
chain: DVYQEPTDPKFPQQWYLSGVTQRDLNVKEAWAQGFTGHGIVVSILDDGIEKNHPDLAGNYDPGASFDVNDQDPDPQPRYTQMNDNRHGTRCAGEVAAVANNGVCGVGVAYNARIGGVRMLDGEVTDAVEARSLGLNPNHIHIYSASWGPEDDGKTVDGPARLAEEAFFRGVSQGRGGLGSIFVWASGNGGREHDSCNCDGYTNSIYTLSISSATQFGNVPWYSEACSSTLATTYSSGNQNEKQIVTTDLRQKCTESHTGTSASAPLAAGIIALTLEANKNLTWRDMQHLVVQTSKPAHLNADDWATNGVGRKVSHSYGYGLLDAGAMVALAQNWTTVAPQRKCIVEILVEPKDIGKRLEVRKAVTACLGEPNHITRLEHVQARLTLSYNRRGDLAIHLISPMGTRSTLLAARPHDYSADGFNDWAFMTTHSWDEDPAGEWVLEIENTSEANNYGTLTKFTLVLYGTAPEGLSTPPESSGCKTLTSSQACVVCEEGYSLHQKSCVQHCPPGFIPQVLDTHYSTENDVEIIRASVCTPCHASCATCQGPAPTDCLSCPSHASLDPVEQTCSRQSQSSRESRPQQQPPALRPEVEMEPRLQAGLASHLPE
B2: the Km entry in data set [2] was “The Kms of PC1, PC2, furin, and PACE4 were determined as 11, 42, 8, and 15 µM, respectively”. The “cleavage of the peptide by furin (HPLC)” value in the data set with Hexa-D-arginine was “essentially no cleavage was observed after 24 h of incubation (results not shown)”; with Nona-L-arginine [3], “Cleavage of nona-L-arginine (SEQ ID NO 13) was first observed ˜40 min after reaction with furin had commenced, with the appearance of hexa- and hepta-L-arginine”; with Hexa-L-arginine, “essentially no cleavage was seen after six hours incubation with furin (results not shown). After 24 hours, partial digestion of hexa-L-arginine (SEQ ID NO 14) had occurred, producing some penta-L-arginine”.

B3: proprotein convertase PC2 (enzyme, UniProt P16519 110-638, looked up, species assumed)
Neuroendocrine convertase 2: GYRDINEIDINMNDPLFTKQWYLINTGQADGTPGLDLNVAEAWELGYTGKGVTIGIMDDGIDYLHPDLASNYNAEASYDFSSNDPYPYPRYTDDWFNSHGTRCAGEVSAAANNNICGVGVAYNSKVAGIRMLDQPFMTDIIEASSISHMPQLIDIYSASWGPTDNGKTVDGPRELTLQAMADGVNKGRGGKGSIYVWASGDGGSYDDCNCDGYASSMWTISINSAINDGRTALYDESCSSTLASTFSNGRKRNPEAGVATTDLYGNCTLRHSGTSAAAPEAAGVFALALEANLGLTWRDMQHLTVLTSKRNQLHDEVHQWRRNGVGLEFNHLFGYGVLDAGAMVKMAKDWKTVPERFHCVGGSVQDPEKIPSTGKLVLTLTTDACEGKENFVRYLEHVQAVITVNATRRGDLNINMTSPMGTKSILLSRRPRDDDSKVGFDKWPFMTTHTWGEDARGTWTLELGFVGSAPQKGVLKEWTLMLHGTQSAPYIDQVVRDYQSKLAMSKKEELEEELDEAVERSLKSILNKN
As for B3, in data set [1], the Km entry was “The Kms of PC1, PC2, furin, and PACE4 were determined as 11, 42, 8, and 15 µM, respectively”. Moreover, the “cleavage of the peptide by PC2 (HPLC)” value in the data set on Nona-L-arginine [4] is reported as “essentially no cleavage was observed after 24 h of incubation (results not shown)”.

B4: proprotein convertase PACE4 (enzyme, UniProt P29122 150-969, looked up, species assumed)
Proprotein convertase subtilisin/kexin type 6: QVRSDPQALYFNDPIWSNMWYLHCGDKNSRCRSEMNVQAAWKRGYTGKNVVVTILDDGIERNHPDLAPNYDSYASYDVNGNDYDPSPRYDASNENKHGTRCAGEVAASANNSYCIVGIAYNAKIGGIRMLDGDVTDVVEAKSLGIRPNYIDIYSASWGPDDDGKTVDGPGRLAKQAFEYGIKKGRQGLGSIFVWASGNGGREGDYCSCDGYTNSIYTISVSSATENGYKPWYLEECASTLATTYSSGAFYERKIVTTDLRQRCTDGHTGTSVSAPMVAGIIALALEANSQLTWRDVQHLLVKTSRPAHLKASDWKVNGAGHKVSHFYGFGLVDAEALVVEAKKWTAVPSQHMCVAASDKRPRSIPLVQVLRTTALTSACAEHSDQRVVYLEHVVVRTSISHPRRGDLQIYLVSPSGTKSQLLAKRLLDLSNEGFTNWEFMTVHCWGEKAEGQWTLEIQDLPSQVRNPEKQGKLKEWSLILYGTAEHPYHTFSAHQSRSRMLELSAPELEPPKAALSPSQVEVPEDEEDYTAQSTPGSANILQTSVCHPECGDKGCDGPNADQCLNCVHFSLGSVKTSRKCVSVCPLGYFGDTAARRCRRCHKGCETCSSRAATQCLSCRRGFYHHQEMNTCVTLCPAGFYADESQKNCLKCHPSCKKCVDEPEKCTVCKEGFSLARGSCIPDCEPGTYFDSELIRCGECHHTCGTCVGPGREECIHCAKNFHFHDWKCVPACGEGFYPEEMPGLPHKVCRRCDENCLSCAGSSRNCSRCKTGFTQLGTSCITNHTCSNADETFCEMVKSNRLCERKLFIQFCCRTCLLAG
For the protein B4, the Km result in data set [1] is “The Kms of PC1, PC2, furin, and PACE4 were determined as 11, 42, 8, and 15 µM, respectively”.
